Values quoted from earlier work, collected in article PMC2883863.

How the values were obtained:
[1] = target: Cys32 (UniProt position 33, FWAEWCGPCKM); conditions: not stated (quoted literature value for E. coli thioredoxin)
[2] = target: Cys30 (UniProt position 49, FFSFFCPHCYQ); conditions: not stated (quoted literature value for E. coli DsbA)

Thioredoxin 1 (Escherichia coli)
pKa [1]: 7.5

Thiol:disulfide interchange protein DsbA (Escherichia coli)
pKa [2]: 3.5
